Publication PMC4661804, “Homeodomain Protein Scr Regulates the Transcription of Genes Involved in Juvenile Hormone Biosynthesis in the Silkworm”

B1: FPPS2 mutant probe (dsDNA)
DNA 1: TCGCAAGTGAAAACACCCCCTTCGCAATCGGTTCA
DNA 2: TGAACCGATTGCGAAGGGGGTGTTTTCACTTGCGA
B2: FPPS2 probe (dsDNA)
DNA 1: TCGCAAGTGAAAACAATTAATTCGCAATCGGTTCA
DNA 2: TGAACCGATTGCGAATTAATTGTTTTCACTTGCGA
B3: JHAMT mutant probe (dsDNA)
DNA 1: ATGGCTAATTTTTTCCCCGAATTAAAAGAAC
DNA 2: GTTCTTTTAATTCGGGGAAAAAATTAGCCAT
B4: JHAMT probe (dsDNA)
DNA 1: ATGGCTAATTTTTTTAATGAATTAAAAGAAC
DNA 2: GTTCTTTTAATTCATTAAAAAAATTAGCCAT
B5: Allatotropin mutant probe (dsDNA)
DNA 1: CCATAGGTTTGTAGACCCCCAGCGTAGCACGCTGTA
DNA 2: TACAGCGTGCTACGCTGGGGGTCTACAAACCTATGG
B6: Allatotropin probe (dsDNA)
DNA 1: CCATAGGTTTGTAGATAATTAGCGTAGCACGCTGTA
DNA 2: TACAGCGTGCTACGCTAATTATCTACAAACCTATGG

How the values were obtained:
[1] = biological target: T1, Scr (Sex combs reduced) (Bombyx mori, UniProt Q9XZR4 1-356); assay: competition; unlabeled mutant, 5-50x, against labeled N3; EMSA: 0.1-1 ug protein, 5 uM labeled probe, 15 uL with 3 uL 5x binding buffer (Beyotime, composition not given), 25 C, 20 + 20 min; 5% PAGE in 1x TBE (45 mM Tris-borate, 1 mM EDTA, pH 8.3); conditions: protein: recombinant; tags: His-SUMO (N-terminal, pCold-SUMO); label: none; blunt
T1 sequence (Q9XZR4 entry or part of it): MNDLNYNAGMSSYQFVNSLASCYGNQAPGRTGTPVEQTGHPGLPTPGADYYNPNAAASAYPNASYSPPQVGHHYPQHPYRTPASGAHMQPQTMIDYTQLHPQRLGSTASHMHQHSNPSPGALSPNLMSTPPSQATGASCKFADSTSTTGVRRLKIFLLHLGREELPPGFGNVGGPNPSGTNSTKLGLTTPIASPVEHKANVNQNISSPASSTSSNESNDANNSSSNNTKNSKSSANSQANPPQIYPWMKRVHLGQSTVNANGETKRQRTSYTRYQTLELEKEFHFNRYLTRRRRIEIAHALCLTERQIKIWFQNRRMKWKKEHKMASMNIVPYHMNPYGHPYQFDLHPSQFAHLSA

[2] = biological target: T1, Scr (Sex combs reduced); assay: EMSA; dose-dependent; competed by unlabeled probe; EMSA: 0.1-1 ug protein, 5 uM labeled probe, 15 uL with 3 uL 5x binding buffer (Beyotime, composition not given), 25 C, 20 + 20 min; 5% PAGE in 1x TBE (45 mM Tris-borate, 1 mM EDTA, pH 8.3); conditions: protein: recombinant; tags: His-SUMO (N-terminal, pCold-SUMO); label: 5'-Cy3; blunt
[3] = biological target: T1, Scr (Sex combs reduced); assay: competition; unlabeled mutant, 5-50x, against labeled N5; EMSA: 0.1-1 ug protein, 5 uM labeled probe, 15 uL with 3 uL 5x binding buffer (Beyotime, composition not given), 25 C, 20 + 20 min; 5% PAGE in 1x TBE (45 mM Tris-borate, 1 mM EDTA, pH 8.3); conditions: protein: recombinant; tags: His-SUMO (N-terminal, pCold-SUMO); label: none; blunt
[4] = biological target: T1, Scr (Sex combs reduced); assay: competition; unlabeled mutant, 5-50x, against labeled N1; EMSA: 0.1-1 ug protein, 5 uM labeled probe, 15 uL with 3 uL 5x binding buffer (Beyotime, composition not given), 25 C, 20 + 20 min; 5% PAGE in 1x TBE (45 mM Tris-borate, 1 mM EDTA, pH 8.3); conditions: protein: recombinant; tags: His-SUMO (N-terminal, pCold-SUMO); label: none; blunt

Binder | binding result [2] | also measured
B1 |  | binding result [1]: no binding
B2 | binds | 
B3 |  | binding result [3]: no binding
B4 | binds | 
B5 |  | binding result [4]: no binding
B6 | binds | 
